{
  "source": "paper PMC9972960",
  "key": {"[1]": {"molecular_target": "purified vaccine protein with HA from influenza A/PR/8/1934 (H1N1), with the C-terminal foldon trimerization domain (influenza A/PR/8/1934 (H1N1) | T4 phage) (UniProt P03452)", "assay": "SEC"}, "[2]": {"molecular_target": "purified vaccine protein with HA from influenza A/PR/8/1934 (H1N1), with the C-terminal foldon trimerization domain (influenza A/PR/8/1934 (H1N1) | T4 phage) (UniProt P03452)", "assay": "native gel or EMSA"}},
  "data": [
    {"substance": "purified vaccine protein with HA from influenza A/PR/8/1934 (H1N1), with the C-terminal foldon trimerization domain (from UniProt P03452)", "values": [
      {"measurement": "stoichiometry N", "setting": "[1]", "result": 3},
      {"measurement": "stoichiometry N", "setting": "[2]", "result": 3}
    ]}
  ]
}
